In patent publication US20120021993A1 (AJOU UNIVERSITY INDUSTRY ACADEMIC COOPERATION FOUNDATION, published 2012):
Where two headings read alike, the source gives them in different places. One block for each binder: values may come before it.

Assays:
[1] = target: T1, human-derived cell death receptor 5, extracellular domain (amino acid residues 1-130), 6xHis tag (human, UniProt O14763 56-210); assay: ELISA, coated target, A405
T1 construct: extracellular domain; Expressed in E. coli; biotinylated for sorting and flow cytometry; also called DR5; TRAIL-receptor 2

cell surface DR5 = cell surface DR5 (human, UniProt O14763 56-440); assay: cell-based or functional assay
[2] = target: T1, human-derived cell death receptor 5, …; assay: ELISA on coated DR5, KD506 alone, A405
[3] = target: T1, human-derived cell death receptor 5, …; assay: ELISA, coated DR5, A405
[4] = target: T1, human-derived cell death receptor 5, …; assay: competitive ELISA on coated DR5, biotinylated KD506 with TRAIL (amount not given), A405
[5] = target: T1, human-derived cell death receptor 5, …; assay: ELISA, coated target, A405 [upper panel]
Experimental: (§1) In order to measure the affinity and cross reactivity of the anti-DR4, -DR5 and -TNFα protein scaffold variants based on the Kringle domain structure to the target molecules, an enzyme-linked immunosorbent assay (ELISA) was performed. The target molecules DR4, DR5, TNFα and DcR1, DcR2 were attached to a 96 well EIA/RIA plate (COSTARCorning In., USA) by its reaction at 37° C. for 1 hour, and washed three times with 0.1% PBST (0.1% Tween20, pH 7.4, 137 mM NaCl, 10 mM Phosphate, 2.7 mM KCl, SIGMA-ALDRICH Co., USA) for 10 minutes. The target molecules were attached for 1 hour to a 96 well EIA/RIA plate in 1% PBSB (1% BSA, pH 7.4, 137 mM NaCl, 10 mM Phosphate, 2.7 mM KCl, SIGMA-ALDRICH Co., USA), and then washed three times with 0.1% PBST (0.1% Tween 20, pH 7.4, 137 mM NaCl, 10 mM Phosphate, 2.7 mM KCl, SIGMA-ALDRICH Co., USA) for 10 minutes. Then, the anti-DR4, -DR5 and -TNFα Kringle domain variants were bound, and washed three times with 0.1% PBST for 10 minutes. The anti-DR4, -DR5 and -TNFα Kringle domain variants were primarily bound to mouse-derived anti-c-myc 9e10 mAb (Ig Therapy, Korea), and secondarily bound to alkaline phosphatase (AP)-conjugated anti-mouse mAb (Sigma). Each of the Kringle domain variants was reacted with […] (pNPP, Sigma-aldrich Co., USA) and quantified at an absorbance of 405 nm.

cell surface DR4 = target: T2, cell surface DR4 (human, UniProt O00220 24-468); assay: flow cytometry on BJAB(DR5-/-) cells, MFI
T2 construct: whole, on cells; also called DR4 on cell surfaces

[6] = target: T3, human-derived cell death receptor 4, extracellular domain (amino acid residues 1-216), 6xHis tag (human, UniProt O00220 24-239); assay: yeast display, flow cytometry MFI [panel KD506]
T3 construct: extracellular domain; Expressed in E. coli; biotinylated for sorting and flow cytometry; residues 1-216; also called DR4; TRAIL-receptor 1

DcR1 [7] = target: T4, DcR1 (UniProt O14798 26-221, limits assumed); assay: yeast display, flow cytometry MFI [panel KD506]
T4 sequence (looked up): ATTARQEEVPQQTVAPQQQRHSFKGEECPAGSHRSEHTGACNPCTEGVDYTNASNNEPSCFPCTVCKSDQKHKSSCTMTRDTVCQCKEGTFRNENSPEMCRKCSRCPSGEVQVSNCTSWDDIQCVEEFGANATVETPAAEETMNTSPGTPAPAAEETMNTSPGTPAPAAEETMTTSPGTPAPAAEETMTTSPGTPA

DcR2 [8] = target: T5, DcR2 (UniProt Q9UBN6 56-211, limits assumed); assay: yeast display, flow cytometry MFI [panel KD506]
T5 sequence (looked up): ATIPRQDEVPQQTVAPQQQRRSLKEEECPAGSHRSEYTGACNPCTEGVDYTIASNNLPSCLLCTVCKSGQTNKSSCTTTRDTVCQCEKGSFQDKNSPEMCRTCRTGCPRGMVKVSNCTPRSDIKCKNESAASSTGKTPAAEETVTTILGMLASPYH

[9] = target: T6, TNFα, extracellular domain (amino acid residue 1-157), 6xHis tag (human, UniProt P01375 57-233); assay: ELISA, coated target, A405
T6 construct: extracellular domain; Expressed in E. coli; The printed residues 1-157 seem to count on the soluble form, not on the precursor; also called human TNFα; tumor necrosis factor alpha

[10] = target: T6, TNFα, extracellular domain (amino acid …); assay: cell-based or functional assay
DcR1 [11] = target: T4, DcR1; assay: yeast display, flow cytometry MFI
DcR2 [12] = target: T5, DcR2; assay: yeast display, flow cytometry MFI
[13] = target: T6, TNFα, extracellular domain (amino acid …); assay: ELISA, coated target, A405; remark: listed apart in the source
Experimental: as §1

[14] = target: T6, TNFα, extracellular domain (amino acid …); assay: affinity ELISA, target coated on the plate
Experimental: as §1
In order to analyze the affinities of the Fc-fused anti-DR4, -DR5 and -TNFα Kringle domains to target molecules, the affinities of the Fc-fused anti-DR4, -DR5 and -TNFα Kringle domains to the target molecules were analyzed using ELISA, as described in Example 8.

[15] = target: T6, TNFα, extracellular domain (amino acid …); assay: ELISA, homo-dimer against monomer
[16] = target: T6, TNFα, extracellular domain (amino acid …); assay: ELISA, target coated on the plate

T6 sequence (P01375 other isoform, or with tags, fused parts or gaps limits assumed): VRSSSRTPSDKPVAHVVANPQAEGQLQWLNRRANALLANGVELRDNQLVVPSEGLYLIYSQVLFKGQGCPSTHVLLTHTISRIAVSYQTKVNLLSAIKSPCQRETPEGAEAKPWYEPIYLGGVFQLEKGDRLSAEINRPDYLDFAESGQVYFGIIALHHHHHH

- binding result (cell surface DR4): no binding
- binding result (DcR1 [7]): no binding
- binding result (DcR2 [8]): no binding
B1: KD506 (designed binder)
chain: CPEDRGHEYDGDGDKTNRGHGCQYWDQNKPHHHGHRDKDKFKHRIKKNYCRNPDYETGPWCFTNRYRNKNELCHEPRC
notes: Soluble monomer from Pichia pastoris; also called anti-DR5 Kringle domain variant KD506; KR506; not shown: C-terminal myc tag-6xHis tag of pPICZaA
- EC50 (read off the curve) [1]: ~300 nM
- EC50 (a concentration of protein causing a 50% cell death), HL60, MTT assay (cell surface DR5): 0.21 µM
- EC50 (a concentration of protein causing a 50% cell death), Jurkat, MTT assay (cell surface DR5): 0.2 µM
- EC50 (read off the curve) [2]: ~100 nM
- EC50 (read off the curve) [3]: ~300 nM
- EC50 (read off the curve) [4]: ~100 nM
- EC50 (read off the curve) [5]: ~300 nM
- binding result [6]: no binding

- binding result (DcR1 [11]): no binding
- binding result (DcR2 [12]): no binding
B2: KDT26 (designed binder)
chain: CPRDQGNQYDGFRYGTYRGHRCQHWTRDEPHFHGFGHQHKYTYRHKKNYCRNPDARPRPWCFTHRYQNRNELCHQPRC
notes: Soluble monomer from Pichia pastoris; also called KRT26; anti-TNFα Kringle domain variant KDT26; not shown: C-terminal myc tag-6xHis tag of pPICZaA
- EC50 (read off the curve) [9]: ~80 nM
- IC50 (50% inhibiting concentration) of TNFα-mediated cell death, WEHI 164, MTT assay [10]: 0.78 µM
- EC50 (read off the curve) [13]: ~80 nM

Continued, binder first:

B3: KDT26-Fc (Fc fusion)
chain: B2 chain
notes: Disulfide-linked dimer from Pichia pastoris; also called KRT26-Fc; Fc-fused anti-TNFα Kringle domain KDT26; not shown: Fc domain region from a hinge of human immunoglobulin G1
- IC50 (50% inhibiting concentration) of TNFα-mediated cell death, WEHI 164, MTT assay [10]: 0.0052 µM
- affinity [14]: 3.8 nM

B4: anti-TNFα KDT26 homo-dimer (designed binder)
chain: CPRDQGNQYDGFRYGTYRGHRCQHWTRDEPHFHGFGHQHKYTYRHKKNYCRNPDARPRPWCFTHRYQNRNELCHQPRCGGGGSGGGGSGGGGSGGGGSCPRDQGNQYDGFRYGTYRGHRCQHWTRDEPHFHGFGHQHKYTYRHKKNYCRNPDARPRPWCFTHRYQNRNELCHQPRC
- fold increase of affinity against the monomer [15]: ~10 fold
- affinity value [16]: 8 nM
